Assay results: patent US20170035894A1, “DRUG DELIVERY CONJUGATES FOR TREATING RESISTANT CANCER AND FOR USE IN COMBINATION THERAPY” (ENDOCYTE, INC., priority 2014, published 2017)
pIC50: −log10 of the molar value. “Also recorded” adds a separate entry of the source. Marks after values point to notes of the source that are not given here.

What was measured:
[1] = target: T1, folate receptors (FRs) on KB cells (Homo sapiens, UniProt P15328); test: Relative Affinity Assay (3H-folic acid displacement); assay type: binding
T1 construct: FR-positive KB cells were heavily seeded into 24-well cell culture plates; endogenous in cells; host or cells: KB cells (human cervical carcinoma)
T1 sequence (P15328 25-234): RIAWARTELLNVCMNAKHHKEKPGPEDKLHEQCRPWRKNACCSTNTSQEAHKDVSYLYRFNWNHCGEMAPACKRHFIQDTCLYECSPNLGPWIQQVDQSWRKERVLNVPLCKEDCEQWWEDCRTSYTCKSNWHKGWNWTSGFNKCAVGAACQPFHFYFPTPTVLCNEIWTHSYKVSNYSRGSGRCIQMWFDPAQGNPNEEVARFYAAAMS
Procedure: METHOD. Relative Affinity Assay. […] Briefly, FR-positive KB cells were heavily seeded into 24-well cell culture plates and allowed to adhere to the plastic for 18 h. Spent incubation media was replaced in designated wells with folate-free RPMI (FFRPMI) supplemented with 100 nM ^3H-folic acid in the absence and presence of increasing concentrations of test article or folic acid. Cells were incubated for 60 min at 37° C. and then rinsed 3 times with PBS, pH 7.4. […] Cell lysates were then collected and added to individual vials containing 5 mL of scintillation cocktail, and then counted for radioactivity. Negative control tubes contained only the ^3H-folic acid in FFRPMI (no competitor). Positive control tubes contained a final concentration of 1 mM folic acid, and CPMs measured in these samples (representing non-specific binding of label) were subtracted from all samples.

H23 = test: In vitro activity against cancer cell lines, 3H-thymidine incorporation; assay type: cell-based, human; conditions: FR expression −; evaluated from 0.1-100 nM
Procedure: (§1) METHOD. In vitro activity against various cancer cell lines. IC50 values were generated for various cell lines. Cells were heavily seeded in 24-well Falcon plates and allowed to form nearly confluent monolayers overnight. Thirty minutes prior to the addition of the test compound, spent medium was aspirated from all wells and replaced with fresh folate-deficient RPMI medium (FFRPMI). A subset of wells were designated to receive media containing 100 μM folic acid. The cells in the designated wells were used to determine the targeting specificity. Without being bound by theory it is believed herein that the cytotoxic activity produced by test compounds in the presence of excess folic acid, i.e. where there is competition for FR binding, corresponds to the portion of the total activity that is unrelated to FR-specific delivery. Following one rinse with 1 mL of fresh FFRPMI containing 10% heat-inactivated fetal calf serum, each well received 1 mL of medium containing increasing concentrations of test compound (4 wells per sample) in the presence or absence of 100 μM free folic acid as indicated. Treated cells were pulsed for 2 h at 37° C., rinsed 4 times with 0.5 mL of media, and then chased in 1 mL of fresh medium up to 70 h. Spent medium was aspirated from all wells and replaced with fresh medium containing 5 μCi/mL ^3H-thymidine. Following a further 2 h 37° C. incubation, cells were washed 3 times with 0.5 mL of PBS and then treated with 0.5 mL of ice-cold 5% trichloroacetic acid per well. After 15 min, the trichloroacetic acid was aspirated and the cell material solubilized by the addition of 0.5 mL of 0.25 N sodium hydroxide for 15 min. A 450 μL aliquot of each solubilized sample was transferred to a scintillation vial containing 3 mL of Ecolume scintillation cocktail and then counted in a liquid scintillation counter. Final results are expressed as the percentage of ^3H-thymidine incorporation relative to untreated controls.

HepG2 = test: as above; assay type: cell-based, human; conditions: FR expression −; evaluated from 0.1-100 nM
Procedure: as §1

IGROV1 = test: as above; assay type: cell-based, human
Procedure: as §1

LNCaP = test: as above; assay type: cell-based, human; conditions: FR expression −
Procedure: as §1

[2] = test system: FR expressing cells (FR+) and cells that do not express FR (FR−); test: Selectivity for folate receptor expressing cells; assay type: cell-based, human
ST040 tumors = test: Endometrial PDX tumor model; assay type: in vivo, Balb/c nu/nu mice; conditions: combined with Paclitaxel 15 mg/kg
Procedure: (§2) Female Balb/c nu/nu mice were fed ad libitum with folate-deficient chow (Harlan diet #TD01013) for the duration of the experiment. Primary human Endometrial model ST040, TNBC models 5T502 and ST738 and Ovarian model ST024 fragments (2-4 mm in diameter) were inoculated subcutaneously at the right flank of each mouse. Mice were randomized into 6 experimental groups of 5 or 3 mice each and test articles were injected through the lateral tail vein under sterile conditions in a volume of 200 μL of phosphate-buffered saline (PBS).
(§3) Growth of each s.c. tumor was followed by measuring the tumor two times per week until a volume of 1200 mm^3 was reached. Tumors were measured in two perpendicular directions using Vernier calipers, and their volumes were calculated as 0.5×L×W^2, where L=measurement of longest axis in mm and W=measurement of axis perpendicular to L in mm.

ST024 tumors = test: Ovarian PDX tumor model; assay type: in vivo, Balb/c nu/nu mice; conditions: combined with Paclitaxel 15 mg/kg
Procedure: as §2, §3

[3] = Maximum tolerated dose (MTD); assay type: in vivo, female Sprague-Dawley rats
Procedure: Maximum tolerated dose (MTD). […] Test compounds were administered by i.v., BIW, 2 wks in female Sprague-Dawley rats. […] Histopathologic changes were not observed with doses of EC1456 at or below the MTD.

[4] = Toxicity as measured by weight loss / gross animal toxicity in tumor-bearing mice; conditions: for Toxicity Avg. Weight Loss / Toxicity Deaths (%): TIW
Procedure: METHOD. Toxicity as Measured by Weight Loss. The percentage weight change of the test animals was determined on selected days post-tumor inoculation (PTI), and during dosing. The results were graphed.
Evaluation. Tumor size was monitored and body weight measured 3 times/week. Attention was given to gross animal morphology and behavior. Euthanasia was performed if the mice lost >20% of weight or when the tumors reached a size of 1500 mm3. Euthanasia was also performed at the researcher's discretion if mice lost a lot of weight in a short duration or when mice were approaching moribund conditions. Blood samples were collected by cardiac puncture from all viable animals from selected cohorts. Heart, lungs, liver, spleen, kidney, intestines, bone, brain and muscle were obtained immediately after euthanasia. The tissues were removed and stored in 10% neutral-buffered formalin.

[5] = EC1456 1.5 μmol/kg two times a week for two weeks
[6] = EC1456 3 μmol/kg once a week for two weeks
[7] = KB tumors, 0.5 μmol/kg, 3 weeks
[8] = KB tumors, 0.67 μmol/kg, 2 weeks
[9] = KB tumors, 1.0 μmol/kg, 2 weeks
[10] = KB tumors, 2.0 μmol/kg, 2 weeks

CCCC(=O)OCN(C(=O)[C@@H](NC(=O)[C@H]1CCCCN1C)C(C)CC)[C@H](C[C@@H](OC(C)=O)c1nc(C(=O)N[C@@H](Cc2ccc(O)cc2)C[C@H](C)C(=O)NNC(=O)OCCSSC[C@@H](NC(=O)[C@H](CCC(=O)NC[C@H](O)[C@@H](O)[C@H](O)[C@H](O)CO)NC(=O)[C@@H](CCC(=O)O)NC(=O)[C@H](CCC(=O)NC[C@H](O)[C@@H](O)[C@H](O)[C@H](O)CO)NC(=O)[C@@H](CCC(=O)O)NC(=O)[C@H](CCC(=O)NC[C@H](O)[C@@H](O)[C@H](O)[C@H](O)CO)NC(=O)CC[C@@H](NC(=O)c2ccc(NCc3cnc4nc(N)[nH]c(=O)c4n3)cc2)C(=O)O)C(=O)O)cs1)C(C)C (stereo in doubt) [EC1456]
Relative Affinity (a) [1]: 0.27
Activity (IC50) (H23): Inactive
Activity (IC50) (HepG2): Inactive
pIC50 (IGROV1; FR expression +): 9.14
Competable up to 100 nM (IGROV1; folic acid competition): Yes
pIC50 (LNCaP): ~6.07
binding to low and high FR expressing cells (FR+) ([2]; FR+ cells): high competable binding
binding to cells that do not express FR (FR−) ([2]; FR− cells): did not show binding
animal exhibiting cure (ST040 tumors; [5]): 1 animal
animals exhibiting PRs (ST040 tumors; [5]): 3 animals
animals exhibiting PR's (ST040 tumors; [6]): 2 animals
animals exhibiting stable disease (ST040 tumors; [6]): 3 animals
animals exhibiting cures (ST024 tumors; EC1456 2 μmol/kg two times a week for two weeks): 100%
animals exhibiting cures (ST024 tumors; EC1456 4 μmol/kg once a week for two weeks): 100%
Histopathologic changes ([3]; doses at or below the MTD): not observed
MTD at 2 wks ([3]; female, Sprague-Dawley, rat, in vivo, iv, BIW, 2 wks): ≥ 0.51 µmol/kg
improvement of MTD over EC0531 ([3]; i.v., BIW, 2 wks): 65%
whole animal toxicity as determined by animal body weight ([4]; KB tumors in nu/nu mice, 1 μmol/kg TIW, 2 weeks): did not result in any observable whole animal toxicity; also recorded: did not show any evidence of whole animal toxicity
gross animal toxicity ([4]; KB tumors, carboplatin/paclitaxel study, EC1456 alone 1 μmol/kg BIW×2): Gross animal toxicity was not observed
toxicity ([4]; KB tumors, carboplatin/paclitaxel study, carboplatin in combination with EC1456): Mild toxicity
Toxicity Avg. Weight Loss [4, 7]: <5%*
Toxicity Deaths (%) [4, 7]: 0%
Toxicity Avg. Weight Loss [4, 8]: <2%
Toxicity Deaths (%) [4, 8]: 0%
Toxicity Avg. Weight Loss [4, 9]: <1.5%
Toxicity Deaths (%) [4, 9]: 0%
Toxicity Avg. Weight Loss [4, 10]: <3%
Toxicity Deaths (%) [4, 10]: 0%
gross animal toxicity ([4]; KB tumors, EC1456 alone 1 μmol/kg BIW×2): Gross animal toxicity was not observed
gross animal toxicity ([4]; KB tumors, EC1456 alone 1 μmol/kg TIW×5): Gross animal toxicity was not observed
toxicity ([4]; KB tumors, cisplatin 3 mg/kg BIW×3 in combination with EC1456): Mild toxicity
toxicity ([4]; KB tumors, docetaxel 7 mg/kg BIW×3 in combination with EC1456): Mild toxicity
weight loss / host animal toxicity ([4]; KB-CR2000 tumors, EC1456 2 μmol/kg TIW 2 weeks): did not exhibit significant host animal toxicity; also recorded: did not cause any weight loss
gross animal toxicity ([4]; KB-DR150 tumors, EC1456 alone 2 μmol/kg TIW×2): Gross animal toxicity was not observed
toxicity ([4]; KB-DR150 tumors, doxorubicin in combination with EC1456): Mild toxicity
gross animal toxicity ([4]; M109 tumors, EC1456 alone 2 μmol/kg TIW×2): Gross animal toxicity was not observed
toxicity ([4]; M109 tumors, cisplatin in combination with EC1456): Mild toxicity
weight loss / gross whole animal toxicity (% weight change) ([4]; MDA-MB-231 tumors, 2 μmol/kg i.v. TIW 2 weeks): did not cause gross whole animal toxicity; also recorded: not accompanied by significant weight loss
gross animal toxicity ([4]; P-1635 KB tumors, EC1456 alone 1 μmol/kg TIW×2): Gross animal toxicity was not observed
toxicity ([4]; P-1635 KB tumors, carboplatin 50 mg/kg TIW in combination with EC1456): Mild toxicity
